These are literature values, as cited in publication PMC4317059.

The target in data set [1] is Asp143 (UniProt position 144, GNAGSDLACGV). Kind of data set: kinetics.
Data set [2] has as its target Glu143 (UniProt position 144, GNAGSELACGV). The experiment in a line: kinetics.

In the case of “Cu,Zn superoxide dismutase (SOD1) Arg143Asp mutant (Homo sapiens; R143D)”, in data set [1], the pKa entry is recorded as “ca. 6.2”.

For “Cu,Zn superoxide dismutase (SOD1) Arg143Glu mutant (Homo sapiens; R143E)”, in data set [2], the pKa entry was “ca. 6.2”.
